The target in test [1] is T1, Skp1-FBXW7 complex (human FBXW7 residues 263-707 with truncated Skp1) (UniProt P63208 1-163).
In test [2] the target is T1, Skp1-FBXW7 complex (human FBXW7 …). As to the kind of experiment: fluorescence polarisation. In general terms: Polarisation of emitted light reports the rotation of a fluorescent probe.

Where two headings read alike, the source gives them in different places. Where no end group is shown, it is not given here. [ ]: non-standard residue; d: D form. pT = C[C@@H](OP(=O)(O)O)[C@H](N)C(=O)O; pS = N[C@@H](COP(=O)(O)O)C(=O)O; Flu = fluorescein

B1: Flu-VPPpTPPGSH (singly phosphorylated fluorescein-tagged DISC1 phosphodegron peptide) (peptide)
peptide: Flu-VPP[pT]PPGSH
By Kd is commonly meant the equilibrium constant for the complex coming apart. A higher Kd goes with lower affinity. The molecule B1 yielded a Kd in test [1] of 2300 nM.

B2: Cyclin E (test agent of the FP assay) (other)
chain: AKKAMLSEQNRASPLPSGLLTPPQSGKKQSS
As to B2, the Kd in test [2] was 2000 nM.

B3: Flu-VPPpTPPGpSH (doubly phosphorylated fluorescein-tagged DISC1 phosphodegron peptide) (peptide)
peptide: Flu-VPP[pT]PPG[pS]H
B3 returned a dissociation constant Kd in test [1] of 1200 nM.

The values above are taken from US9981005 (dated 2018).
